Legend:
[1] = target: HLA-A*32:01; test: IEDB peptide-MHC binding, purified MHC/competitive/radioactivity; filed as Kd, often an IC50 or EC50 that approximates it; ≥ and ≤ were set here for values at or beyond the usual limits of such assays
[2] = target: HLA-A*30:02; test: as above
[3] = target: HLA-A*01:01; test: as above
[4] = target: HLA-A*24:02; test: as above
[5] = target: HLA-A*23:01; test: as above
[6] = target: HLA-A*29:02; test: as above
[7] = target: HLA-A*26:01; test: as above
[8] = target: HLA-B*08:01; test: as above
[9] = target: HLA-B*07:02; test: as above
[10] = target: HLA-B*44:03; test: as above
[11] = target: HLA-B*44:02; test: as above
[12] = target: HLA-B*40:01; test: as above
[13] = target: HLA-B*46:01; test: IEDB peptide-MHC binding, purified MHC/direct/fluorescence; filed as Kd, often an IC50 or EC50 that approximates it; ≥ and ≤ were set here for values at or beyond the usual limits of such assays
[14] = target: HLA-B*15:01; test: as above
[15] = target: HLA-A*69:01; test: as above; settings: source organism: Yellow fever virus
[16] = target: HLA-B*51:01; test: IEDB peptide-MHC binding, purified MHC/competitive/radioactivity; filed as Kd, often an IC50 or EC50 that approximates it; ≥ and ≤ were set here for values at or beyond the usual limits of such assays; settings: source organism: Dengue virus 1 Brazil/97-11/1997
[17] = target: HLA-A*30:01; test: as above; settings: source organism: Lymphocytic choriomeningitis virus (strain Armstrong)
[18] = source organism: SARS coronavirus Tor2
[19] = source organism: Dengue virus 2 Jamaica/1409/1983
[20] = source organism: Vaccinia virus WR
[21] = source organism: Mammarenavirus machupoense
[22] = source organism: Dengue virus 1 Brazil/97-11/1997
[23] = source organism: Dengue virus 1 Singapore/S275/1990
[24] = source organism: Yellow fever virus
[25] = source organism: Dengue virus 3 Martinique/1243/1999
[26] = source organism: Lymphocytic choriomeningitis virus (strain Armstrong)
[27] = source organism: Dengue virus 4 Philippines/H241/1956
[28] = source organism: Yellow fever virus 1899/81

ATIWRSLSI was tested, and the Kd ([1]; source organism: Vaccinia virus Copenhagen) was 1.89 nM.
Work on VMMSAPPAEY yielded a Kd [2, 18] of 4.31 nM, a Kd [3, 18] of 154 nM and a Kd [4, 18] of at least 35600 nM. It also gave a Kd [5, 18] of at least 39900 nM, a Kd [6, 18] of 3.16 nM and a Kd [7, 18] of 9020 nM.
In the case of LNRRRRTAG, the Kd [8, 19] is reported as 739 nM.
FYAYLRKHF showed a Kd [2, 18] of at least 125000 nM, a Kd [3, 18] of at least 78100 nM and a Kd [4, 18] of at least 31800 nM. The Kd [5, 18] was at least 23900 nM, the Kd [6, 18] was at least 46000 nM and the Kd [7, 18] was at least 77900 nM.
NPTTLTASL was tested, and the Kd ([9]; source organism: Dengue virus 4 Dominica/814669/1981) was 57.3 nM.
In the case of SLSAVSVHI, the Kd [1, 20] is reported as 33.9 nM.
Sequence LCMLNNSLYY has a Kd [2, 21] of 181 nM, a Kd [3, 21] of 367 nM and a Kd [4, 21] of at least 55200 nM. For the same sequence, the Kd [5, 21] was at least 40400 nM, the Kd [6, 21] was 7.19 nM and the Kd [7, 21] was at least 69700 nM.
Work on RELKCGSGIF yielded a Kd [10, 22] of 151 nM and a Kd [11, 22] of 54.8 nM.
For ELSPRWYFY, the Kd [2, 18] was 790 nM, the Kd [3, 18] was at least 35000 nM and the Kd [4, 18] was 13200 nM. The Kd [5, 18] was 10600 nM, the Kd [6, 18] was 70.3 nM and the Kd [7, 18] was 15.7 nM.
In the case of WELVDRERNL, the Kd [12, 19] is reported as 116 nM.
Sequence KIWGRKSWPL has a Kd [8, 23] of 382 nM.
With KMLDPRQGL the Kd [13, 24] was at least 20000 nM, the Kd [14, 24] was 808 nM and the Kd [15] was at least 10000 nM.
Sequence NEPEDIDCW has a Kd [10, 19] of 870 nM and a Kd [11, 19] of 1080 nM.
Sequence EKEENLVNSL has a Kd [8, 19] of 1840 nM.
YLMLLFAAM was tested, and the Kd [8, 20] was 138 nM.
For PYNSVTDTI, the Kd [2, 18] was at least 81100 nM, the Kd [3, 18] was at least 78100 nM and the Kd [4, 18] was 7.16 nM. The Kd [5, 18] was 20.3 nM, the Kd [6, 18] was 6820 nM and the Kd [7, 18] was at least 77900 nM.
For LEKASLIEV, the Kd [12, 25] was 1030 nM and the Kd [11, 25] was at least 77900 nM.
ICISLSNSF gave a Kd [2, 26] of at least 76900 nM, a Kd [3, 26] of at least 21400 nM and a Kd [4, 26] of at least 77500 nM. The Kd [5, 26] was at least 77700 nM, the Kd [6, 26] was at least 78900 nM and the Kd [7, 26] was at least 77900 nM.
Work on LMTGTLAVFL yielded a Kd [8, 22] of 1700 nM.
With GVFPVSIPI the Kd [1, 19] was 44.5 nM.
Sequence IENLEYTVVV has a Kd [12, 27] of 157 nM.
With VYMDAVFEY the Kd [13, 28] was at least 20000 nM and the Kd [14, 28] was 600 nM.
Work on SLQQRLEDL yielded a Kd [8, 20] of 158 nM.
For FRRLRKGSI, the Kd [8, 20] was 3.01 nM.
With SPMGKLTFF the Kd [8, 20] was 262 nM.
Sequence ITLVYKVYY has a Kd [2, 18] of 5.19 nM, a Kd [3, 18] of 44.9 nM and a Kd [4, 18] of at least 77600 nM. It also gave a Kd [5, 18] of at least 57700 nM, a Kd [6, 18] of 1.64 nM and a Kd [7, 18] of 1640 nM.
For YLLSLFSTL, the Kd [8, 20] was 4.02 nM.
TPQDNQLAYV gave a Kd [16] of 14600 nM and a Kd [9, 22] of 330 nM.
Sequence LMGFRNSAL has a Kd [8, 20] of 1100 nM.
VCLSGEGWPY was tested, and the Kd [4, 26] was at least 70300 nM, the Kd [5, 26] was at least 70000 nM and the Kd [17] was at least 33200 nM. It also gave a Kd [1, 26] of at least 26100 nM and a Kd [7, 26] of at least 69700 nM.
Work on ITYPKALVF yielded a Kd [1, 20] of 3.02 nM.
EEMFKKRNL gave a Kd [12, 25] of 6310 nM, a Kd [10, 25] of 483 nM and a Kd [11, 25] of 51.2 nM.
For SLGCKPLTM, the Kd [8, 23] was 169 nM.
TPMLRHSIEN showed a Kd [9, 19] of 507 nM.
Work on NEGIMAVGL yielded a Kd [12, 27] of 2260 nM and a Kd [10, 27] of 1540 nM.

From the Immune Epitope Database (IEDB)
